According to the MegaScale stability set (Tsuboyama et al. 2023):

B1: r16_88_TrROS_Hall (parent)
chain: EVIELKIKFKTPEQREKLKEIAKKLNAEVVEEKDGEVIIRFKTPEQAERALKEAEKLGAEVEL

Variants of: B1
Experiment: folding stability dG (cDNA display proteolysis); higher = more stable
Conditions: PBS, room temperature

Folding stability dG [kJ/mol], by site and new letter:
E55: Q 18.8; F 19.2; W 19.2; H 17.6; K 18; R 19.1; Y 19.5; L 18.6; I 18.7; G 17.7; C 18.5; T 18; V 18.9; N 18.5; P 15.3; M 18.3; S 18.9; A 18.6; D 17.9
G58: P 16; K 17.8; W 17.6; Q 17.8; S 18.6; C 17.9; V 17.6; N 17.8; H 17.9; Y 17.8; A 18; F 17.8; D 18.5; I 17.6; E 17.3; R 17.9; L 18.2; T 17.8; M 18.1
K42: V 17.5; A 17.2; E 15.9; T 17.3; D 16.8; S 17.7; H 17.2; N 17.5; Q 16.5; M 17.5; L 17.3; W 17.8; G 16.9; C 17.9; P 15.9; I 18.3; R 19.3; F 18.1; Y 18.2
E45: G 18.3; T 19.3; P 17.4; F 18.6; N 18.4; H 17.1; S 17.9; A 18.1; Y 19.8; Q 18.3; W 18.3; D 17.7; R 18.3; K 18.5; C 19.9; I 18.8; M 18.7; L 17.9; V 17.8
T43: L 19.5; W 17.9; V 17.9; K 18.2; Q 18; F 18.5; P 12.8; G 17.1; M 19.1; E 15.1; H 19.1; N 16.2; C 19.4; R 17; D 16.1; S 19; Y 18.5; A 18.6; I 18.7
A54: Y 17.4; P 12; H 14.7; V 18.6; S 18.6; Q 15.1; L 18.2; K 14.7; E 12.7; M 18.6; T 17.5; F 18.2; N 15.3; G 17.1; R 14.2; I 18.5; W 17.1; C 18.4; D 12
F41: T 15.6; L 16.8; W 16.7; K 2.8; R 4.37; S 16.8; N 13.9; Y 17.7; P 14.5; V 17.1; M 17.3; Q 9.35
E48: D 18.7; C 18.9; M 18.7; P 16.3; Y 19.5; T 17.9; V 17.5; G 17.9; Q 18.3; R 17.8; N 19.3; A 18.8; I 17.5; L 17.9; W 18.7; F 19.8; S 18.4; K 19.5; H 18.9
A59: C 17.4
K52: E 17; T 17.7; L 18.6; V 17.6; Y 19.5; R 18.6; I 16.9; H 18; C 18.1; D 17.8; M 17.9; N 17.8; Q 17.2; S 17.9; F 19.3; G 18.6; W 18.5; A 18.9; P 16.4
E53: N 16.2; W 18.3; L 19.3; H 17.4; F 18.8; I 17.9; A 17.3; S 17.6; Y 18; P 12.9; G 17; Q 18.5; V 18.2; K 16.8; C 18.4; D 18.2; T 16.9; M 18.4; R 16.9
R49: M 18.7; C 18.5; S 18.7; T 16.9; P 17.5; I 18.8; H 18.4; E 18.9; A 18.3; Y 20.6; K 17.4; F 19.9; N 18.2; V 18.8; L 18.9; Q 18.4; D 19.1; G 18.3
L51: A 18.5; I 18.4; Y 17.1; Q 18.9; V 18.4; P 11.7; S 19.2; N 18; K 19.3; D 16.5; M 18.4; G 18.6; C 18.4; R 19.3; T 19.9; F 18.4; W 17.8; H 20
L57: C 17.6; D 17.1; F 18.1; M 18; W 19.3; Q 17.8; N 18.2; G 16.6; I 18.5; T 16.9; V 18.8; E 18.2; H 17.8; K 14.6; P 13.9; R 14.9; S 17.8; Y 17.9; A 17.4
A47: P 13.6; K 19.5; H 18.5; T 18.2; G 17.9; E 17.5; F 18.9; M 18.4; Y 20; L 19.5; V 19.4; W 20; N 15.4; Q 20.1; S 18.4; D 13.2; I 18.9; C 18.7; R 19
A50: M 18; F 18.3; D 11.6; C 18.3; K 10.7; G 18.7; N 15; H 15.4; T 17.8; P 12.4; L 17.9; Y 18.5; I 18.4; W 19.6; R 10.8; Q 16.1; V 18.4; S 16.3; E 14
Q46: W 17.6; F 18.5; V 18.3; R 16.7; S 18.7; M 17.4; A 17.9; I 17.3; C 18.5; G 18.8; E 17.5; D 18.3; N 17.8; Y 17.5; T 17.8; K 17.6; P 18.6; L 17.9; H 17.7
P44: V 18.2; L 19.5; W 19.2; E 17.2; Y 18.4; T 18.7; N 19; A 19.2; F 19; R 17.5; C 19.5; M 19.2; D 17.4; G 18.3; H 19.9; I 18.2; S 18.8; K 19.3; Q 19.1
K56: V 18.6; R 17.4; L 18.8; W 17.8; N 18.6; Q 18.5; S 18.9; C 18.4; G 18.9; D 17.6; I 18.9; P 18.8; A 18.8; F 17.7; H 18.1; T 18.7; E 17.9; Y 18.4; M 19.1
